Test [1] concerns the target T1, PDE6 (higher-affinity site) (Bos taurus, UniProt P11541).
T1 chain 1: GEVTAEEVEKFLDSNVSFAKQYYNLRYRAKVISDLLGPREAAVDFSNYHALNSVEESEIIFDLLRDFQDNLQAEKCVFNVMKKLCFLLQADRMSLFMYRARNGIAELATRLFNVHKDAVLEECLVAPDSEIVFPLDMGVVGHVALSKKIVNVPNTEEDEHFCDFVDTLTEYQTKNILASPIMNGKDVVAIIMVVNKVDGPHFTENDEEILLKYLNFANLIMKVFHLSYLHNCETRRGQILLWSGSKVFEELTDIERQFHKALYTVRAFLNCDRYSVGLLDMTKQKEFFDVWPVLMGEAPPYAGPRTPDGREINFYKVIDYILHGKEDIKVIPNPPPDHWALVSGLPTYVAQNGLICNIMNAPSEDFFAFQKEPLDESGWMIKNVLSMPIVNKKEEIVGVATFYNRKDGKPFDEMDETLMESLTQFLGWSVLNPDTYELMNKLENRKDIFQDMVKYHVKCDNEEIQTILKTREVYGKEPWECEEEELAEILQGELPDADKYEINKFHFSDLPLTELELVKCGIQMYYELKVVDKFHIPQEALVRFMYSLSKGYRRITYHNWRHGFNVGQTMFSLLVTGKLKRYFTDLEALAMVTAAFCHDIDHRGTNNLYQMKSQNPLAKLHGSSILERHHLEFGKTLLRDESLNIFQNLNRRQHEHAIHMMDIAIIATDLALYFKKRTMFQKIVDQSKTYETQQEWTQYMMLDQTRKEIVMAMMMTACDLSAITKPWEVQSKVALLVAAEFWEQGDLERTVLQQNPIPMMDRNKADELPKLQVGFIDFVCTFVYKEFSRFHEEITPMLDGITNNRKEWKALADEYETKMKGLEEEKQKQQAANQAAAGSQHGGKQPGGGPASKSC
T1 chain 2: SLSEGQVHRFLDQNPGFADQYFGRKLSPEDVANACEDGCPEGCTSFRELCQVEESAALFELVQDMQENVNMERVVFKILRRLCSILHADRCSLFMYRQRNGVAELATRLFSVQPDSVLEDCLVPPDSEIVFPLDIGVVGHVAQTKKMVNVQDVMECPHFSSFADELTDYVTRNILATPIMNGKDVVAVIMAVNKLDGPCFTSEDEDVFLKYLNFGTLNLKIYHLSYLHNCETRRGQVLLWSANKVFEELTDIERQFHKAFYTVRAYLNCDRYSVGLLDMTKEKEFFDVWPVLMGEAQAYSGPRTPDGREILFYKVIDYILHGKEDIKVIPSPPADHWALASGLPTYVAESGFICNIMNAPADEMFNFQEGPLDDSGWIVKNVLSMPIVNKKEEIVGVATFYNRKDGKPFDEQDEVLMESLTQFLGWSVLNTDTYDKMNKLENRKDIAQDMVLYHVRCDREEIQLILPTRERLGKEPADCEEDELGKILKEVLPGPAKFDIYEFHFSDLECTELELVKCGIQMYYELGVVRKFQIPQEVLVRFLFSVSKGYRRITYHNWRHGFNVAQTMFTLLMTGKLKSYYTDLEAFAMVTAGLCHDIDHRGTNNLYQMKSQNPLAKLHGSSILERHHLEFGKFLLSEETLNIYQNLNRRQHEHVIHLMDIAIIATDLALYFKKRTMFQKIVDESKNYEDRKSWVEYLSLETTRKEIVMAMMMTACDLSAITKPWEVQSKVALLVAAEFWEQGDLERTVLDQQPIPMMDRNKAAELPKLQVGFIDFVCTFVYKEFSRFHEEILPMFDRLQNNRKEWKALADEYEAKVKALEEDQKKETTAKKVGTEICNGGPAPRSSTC
Nature of the test: activity titration.

The target in test [2] is T2, PDE6 (lower-affinity site) (Bos taurus, UniProt P11541).
T2 chain 1: T1 chain 1
T2 chain 2: T1 chain 2
Put plainly: activity titration.

Kd data for one molecule are collected here from article PMC5758567 (2018).

B1: PrBP/δ (protein)
chain: MSAKDERAREILRGFKLNWMNLRDAETGKILWQGTEDLSVPGVEHEARVPKKILKCKAVSRELNFSSTEQMEKFRLEQKVYFKGQCLEEWFFEFGFVIPNSTNTWQSLIEAAPESQMMPASVLTGNVIIETKFFDDDLLVSTSRVRLFYV
Broadly, the Kd is a measure of binding affinity in units of concentration. A high value points to lower affinity. As to B1, the dissociation constant (Kd) was 40 nM in test [1] and 700 nM in test [2].
